Experimental data taken from US20100086555A1.
Where two headings read alike, the source gives them in different places.

B1: FE53 (antibody, V domains shown)
VH: QVQLVQSGAEVKKPGSSVKVSCKASGVTSSNYPITWVRQAPGQGLEWMGGVLPLFGVTNYAQKFQGRVTISADKSTNTAYMELSSLRSEDTAVYYCARGKRPGYCSGGVCSSDYWGQGTLVTVSS
VL: DIQMTQSPSSLSASVGDRVSITCQASQDISRYLNWYQQKPGEAPKLLIYDASNLETGVPSRFSGSGSGTDFTFTISSLQPEDIATYFCQQYGYLPLTFGPGTKVDSK
B2: FE43 (antibody, V domains shown)
VH: QVHLVQSGAEVKKPGSSVRLSCSASGGPFSGFAISWLRQAPGQGLEWLGGISAVFGTATYAQKFQGRVTITADQFTSTSHMDLSRLTYDDTAVYYCARSGGYLPQNNWIDPWGQGTLVIVSS
VL: DIVMTQTPLSLSVTPGQPASISCKSSQSLLHSDGKTYLYWYLQKPGQSPQLLIYEVSNRFSGVPDRFSGSGSGTDFTLKISRVEAEDVGVYYCMQNILLPLTFGGGTKVEIK
B3: FC6 (antibody, V domains shown)
VH: QGQLVQSGAEVKKSGSSVKVSCKTSGGTFNSHAISWVRQAPGQGLEWIGGIIPMFGTTNYAQKLKGRIAITADQLPTTAYLELSSLRSEDTAVYYCARGQRYYYDRDGMDVWGQGTMVTVSS
VL: EIVMTQTPLSLSVTPGQPASISCRSSQSLLHSDGKTYLYWYLQKPGQPPQLLISEVFNRFSGVPDRFSGSGSGTDFTLKISRVEAEDVGVYYCMQSLQLPLTFGGGTKVEIK
B4: FB139 (antibody, V domains shown)
VH: QVQLVQSGAEVKKAGSSVKVSCQSSGVTFSMYAVSWVRQAPGQGLEWMGGIIPLFGTTTYAQKFEGRLTITADTSTNMAYLELRSLRSEDTAVYFCARAGTTVTRFNWFDPWGQGTLVTVSS
VL: EVVLTQSPGTLSLSPGQRATLSCRASQSVSSSYLAWYQQKPGQAPRLLIYDASNRATGIPDRFSGSGSGTDFTLTISRLEPEDFAVYYCQQYGSSPYTFGQGTKLEIK

What was measured:
[1] = target: recombinant trimeric H5 HA (A/VN/1203/04) (influenza A virus A/VN/1203/04 (H5N1)); assay: ELISA
[2] = target: H1 HA A/SI/3/06 (ELISA antigen) (influenza A virus A/SI/3/06 (H1)); assay: ELISA
[3] = target: H9 HA A/HK/1073/99 (ELISA antigen) (influenza A virus A/HK/1073/99 (H9)); assay: ELISA
[4] = target: H5 HA A/INDO/5/05 (ELISA antigen) (influenza A virus A/INDO/5/05 (H5N1)); assay: ELISA
[5] = target: H1 HA A/Texas/3/99 (ELISA antigen) (influenza A virus A/Texas/3/99 (H1)); assay: ELISA
[6] = target: recombinant trimeric H5 HA (A/VN/1203/04) (influenza A virus A/VN/1203/04 (H5N1)); assay: competition ELISA on recombinant trimeric H5 HA; competitor C179
[7] = target: H5 HA A/Anhui/1/5 (on pseudotypes) (influenza A virus A/Anhui/1/5 (H5N1)); assay: cell-based or functional assay
[8] = target: H5 HA A/VN/1203/04 (on pseudotypes and on infectious virus) (influenza A virus A/VN/1203/04 (H5N1)); assay: cell-based or functional assay
[9] = target: H5 HA A/WS/Mong/244/05 (on pseudotypes) (influenza A virus A/WS/Mong/244/05 (H5N1)); assay: cell-based or functional assay
[10] = target: H5 HA A/VN/1194/04 (on pseudotypes) (influenza A virus A/VN/1194/04 (H5N1)); assay: cell-based or functional assay
[11] = target: H5 HA A/INDO/5/05 (on pseudotypes and on infectious virus) (influenza A virus A/INDO/5/05 (H5N1)); assay: cell-based or functional assay
[12] = target: H9 HA A/HK/1073/99 (on infectious virus) (influenza A virus A/HK/1073/99 (H9N2)); assay: cell-based or functional assay
[13] = target: H5 HA A/HK/491/97 (on pseudotypes) (influenza A virus A/HK/491/97 (H5N1)); assay: cell-based or functional assay
[14] = target: H3 HA A/WY/3/03 (on infectious virus) (influenza A virus A/WY/3/03 (H3N2)); assay: cell-based or functional assay
[15] = target: H9 HA A/ck/HK/G9/97 (on infectious virus) (influenza A virus A/ck/HK/G9/97 (H9N2)); assay: cell-based or functional assay
[16] = target: H1 HA A/SI/3/06 (on infectious virus) (influenza A virus A/SI/3/06 (H1N1)); assay: cell-based or functional assay
[17] = target: H1 HA A/NC/20/99 (on infectious virus) (influenza A virus A/NC/20/99 (H1N1)); assay: cell-based or functional assay
[18] = target: H5 HA A/HK/213/03 (on pseudotypes) (influenza A virus A/HK/213/03 (H5N1)); assay: cell-based or functional assay
[19] = target: recombinant trimeric H5 HA (A/VN/1203/04) (influenza A virus A/VN/1203/04 (H5N1)); assay: competition ELISA on recombinant trimeric H5 HA; competitor FLD21
[20] = target: H1 HA A/NJ/76 (on infectious virus) (influenza A virus A/NJ/76 (H1N1)); assay: cell-based or functional assay
[21] = target: H5 HA A/VN/1203/04 (on pseudotypes and on infectious virus) (influenza A virus A/VN/1203/04 (H5N1)); assay: cell-based or functional assay; remark: listed apart in the source
[22] = target: H1 HA A/swine/Iowa/31 (on infectious virus) (influenza A virus A/swine/Iowa/31 (H1N1)); assay: cell-based or functional assay
[23] = target: H1 HA A/CA/07/09 (on infectious virus) (influenza A virus A/CA/07/09 (H1N1)); assay: cell-based or functional assay
[24] = target: H1 HA A/PR/8/34 (on infectious virus) (influenza A virus A/PR/8/34 (H1N1)) (UniProt P03452); assay: cell-based or functional assay
[25] = target: H1 HA A/NJ/76 (on infectious virus) (influenza A virus A/NJ/76 (H1N1)); assay: cell-based or functional assay; remark: listed apart in the source
[26] = target: H1 HA A/swine/Iowa/31 (on infectious virus) (influenza A virus A/swine/Iowa/31 (H1N1)); assay: cell-based or functional assay; remark: listed apart in the source
[27] = target: H1 HA A/CA/07/09 (on infectious virus) (influenza A virus A/CA/07/09 (H1N1)); assay: cell-based or functional assay; remark: listed apart in the source
[28] = target: H6 HA A/teal/HK/WN312/97 (on infectious virus) (influenza A virus A/teal/HK/W312/97 (H6N1)); assay: cell-based or functional assay
[29] = target: H1 HA A/PR/8/34 (on infectious virus) (influenza A virus A/PR/8/34 (H1N1)) (UniProt P03452); assay: cell-based or functional assay; remark: listed apart in the source
[30] = target: H2 HA A/JP/305/57 (on infectious virus) (influenza A virus A/JP/305/57 (H2N2)) (UniProt P03451); assay: cell-based or functional assay

Binder	K50 [1] [µg/mL]	K50 [2] [µg/mL]	K50 [3] [µg/mL]	K50 [4] [µg/mL]	K50 [5] [µg/mL]	Competition (%) [6] [%]	Neutralization of HA-pseudotypes (IC90) [7] [µg/mL]	Neutralization of HA-pseudotypes (IC90) [8] [µg/mL]	Neutralization of HA-pseudotypes (IC90) [9] [µg/mL]	Neutralization H5pp IC90 [10] [µg/mL]	Neutralization of HA-pseudotypes (IC90) [10] [µg/mL]	Neutralization of HA-pseudotypes (IC90) [11] [µg/mL]	Neutralization of infectious viruses (IC50) [12] [µg/mL]	Neutralization of HA-pseudotypes (IC90) [13] [µg/mL]	Neutralization of infectious viruses (IC50) [15] [µg/mL]	Neutralization H1N1 IC90 [16] [µg/mL]	Neutralization of infectious viruses (IC50) [16] [µg/mL]	Neutralization of infectious viruses (IC50) [17] [µg/mL]	Neutralization of HA-pseudotypes (IC90) [18] [µg/mL]	Competition (%) [19] [%]	further results
B1	0.015	0.375	0.014	0.084	0.015	100	0.065	0.098	0.077	0.008	0.008	0.491	8	0.046	2	6.2	6	37	0.066	< 20	Neutralization H5N1 IC50 [8]: > 50 µg/mL; Neutralization H3N2 IC50 [14]: > 50 µg/mL; Neutralization H9N2 IC50 [15]: 0.1 µg/mL; Neutralization H1N1 IC90 [17]: 6.2 µg/mL
B2	0.029	0.206	0.307	4.54	0.013	100	0.137	0.146	0.186	0.03	0.061	0.39	50	0.053	4	6.2	9	40	0.07	< 20	Neutralization of infectious viruses (IC50) [20]: 9 µg/mL; Neutralization of infectious viruses (IC50) [21]: > 50 µg/mL; Neutralization of infectious viruses (IC50) [22]: 3 µg/mL; Neutralization of infectious viruses (IC50) [23]: 4 µg/mL; Neutralization of infectious viruses (IC50) [24]: 1.5 µg/mL; Hemagglutination inhibition titer [25]: < 5; Hemagglutination inhibition titer [8]: < 5; Neutralization H5N1 IC50 [8]: > 50 µg/mL; Hemagglutination inhibition titer [26]: 20; Neutralization of infectious viruses (IC50) [11]: 25 µg/mL; Hemagglutination inhibition titer [27]: < 5; Neutralization of infectious viruses (IC50) [28]: 20 µg/mL; Neutralization H3N2 IC50 [14]: > 50 µg/mL; Neutralization H9N2 IC50 [15]: 0.02 µg/mL; Hemagglutination inhibition titer [29]: < 5; Neutralization of infectious viruses (IC50) [29]: 4 µg/mL; Neutralization H1N1 IC90 [17]: 6.2 µg/mL
B3	0.157	1.47	0.15	–	0.066	100	0.112	0.096	0.073	0.04	0.061	0.242	36	0.081	9	12.5	18	40	0.077	< 20	Neutralization of infectious viruses (IC50) [11]: 31 µg/mL; Neutralization of infectious viruses (IC50) [28]: 63 µg/mL; Neutralization of infectious viruses (IC50) [29]: 16 µg/mL; Neutralization H1N1 IC90 [17]: 12.5 µg/mL
B4	0.033	1.38	0.066	0.163	0.06	100	0.022	0.034	0.035	–	0.04	0.106	20	0.019	6	–	4	36	0.019	< 20	Neutralization of infectious viruses (IC50) [8]: 36 µg/mL; Neutralization of infectious viruses (IC50) [11]: 36 µg/mL; Neutralization of infectious viruses (IC50) [30]: 50 µg/mL; Neutralization of infectious viruses (IC50) [29]: 5 µg/mL
